What all share (experiment): homogeneous cell binding assay on transfected HEK293-6e cells as in Example 8 (data not shown)
For assay [1], the target named is T1, Human HER2 (human, UniProt P04626 23-1255).
T1 construct: whole, on cells
Here is the method:
(§1) Binding of constructs to target was assessed in HEK293-6e cells transiently expressing the target of interest.
(§2) Parental cells were maintained in 250 mL Erlenmeyer flasks (Corning, 431144) at 37° C., 5% CO2 in a rotating humidified incubator at 115 rpm. HEK293-6e cells were re-suspended to 1×10⁶ cells/mL in fresh Freestyle media before transfection. […] The DNA vectors that were used to express targets of interest were pTT5 vectors with full length targets of interest including Human Dectin-1, Human DEC205, Human CD40, Human HER2, Human ROR1 and mock vector containing GFP. The cells were incubated for 24 hours at 37° C. and 5% CO2 in a rotating humidified incubator at 115 rpm.
(§3) Construct samples were prepared at starting concentrations of 40 nM final in FACS buffer or 1×PBS pH 7.4 (Gibco, 1001023)+2% FBS in Eppendorf tubes. Samples were titrated in duplicate 1:4 down to 0.04 nM directly in the 384-well black optical bottom assay plate (Thermo Fisher, 142761). HEK293-6e cells expressing target of interest were harvested and re-suspended in FACS buffer at 10,000 cells per 30 μl. To visualize cell nuclei as a focusing channel, Vybrant™ DyeCycle™ Violet nuclear stain (Life Tech, V35003) was added to cells at 2 μM final concentration. To detect binding of test construct sample to cells, Goat anti-Human IgG Fc A647 (Jackson ImmunoResearch, 115-605-071) was added to cells at 0.6 μg/mL final. The cells were vortexed briefly to mix and plated at 10,000 cells/well. The plate was incubated at room temperature for 3 hours before scanning. Data analysis was performed on the CellInsight™ with the HCS high content screening platform (Thermo Scientific), using BioApplication “CellViability” with a 10× objective. Samples were scanned on the 385 nm channel to visualize nuclear staining and channel 650 nm to assess cell binding. The mean object average fluorescence intensity of A647 was measured on channel 2 to determine binding intensity on all cell conditions.

The target of assay [2] is T2, Human CD40 (human, UniProt P25942 21-277).
T2 construct: whole, on cells
Here is the method:
as §1, §2, §3

Assay [3] concerns the target T3, Human DEC205 (human, UniProt O60449 28-1722).
T3 construct: whole, on cells
On the procedure: as §1, §2, §3

Here are results for two molecules from patent publication US20200048371A1 (Zymeworks, published 2020).

T3 sequence (O60449 28-1722): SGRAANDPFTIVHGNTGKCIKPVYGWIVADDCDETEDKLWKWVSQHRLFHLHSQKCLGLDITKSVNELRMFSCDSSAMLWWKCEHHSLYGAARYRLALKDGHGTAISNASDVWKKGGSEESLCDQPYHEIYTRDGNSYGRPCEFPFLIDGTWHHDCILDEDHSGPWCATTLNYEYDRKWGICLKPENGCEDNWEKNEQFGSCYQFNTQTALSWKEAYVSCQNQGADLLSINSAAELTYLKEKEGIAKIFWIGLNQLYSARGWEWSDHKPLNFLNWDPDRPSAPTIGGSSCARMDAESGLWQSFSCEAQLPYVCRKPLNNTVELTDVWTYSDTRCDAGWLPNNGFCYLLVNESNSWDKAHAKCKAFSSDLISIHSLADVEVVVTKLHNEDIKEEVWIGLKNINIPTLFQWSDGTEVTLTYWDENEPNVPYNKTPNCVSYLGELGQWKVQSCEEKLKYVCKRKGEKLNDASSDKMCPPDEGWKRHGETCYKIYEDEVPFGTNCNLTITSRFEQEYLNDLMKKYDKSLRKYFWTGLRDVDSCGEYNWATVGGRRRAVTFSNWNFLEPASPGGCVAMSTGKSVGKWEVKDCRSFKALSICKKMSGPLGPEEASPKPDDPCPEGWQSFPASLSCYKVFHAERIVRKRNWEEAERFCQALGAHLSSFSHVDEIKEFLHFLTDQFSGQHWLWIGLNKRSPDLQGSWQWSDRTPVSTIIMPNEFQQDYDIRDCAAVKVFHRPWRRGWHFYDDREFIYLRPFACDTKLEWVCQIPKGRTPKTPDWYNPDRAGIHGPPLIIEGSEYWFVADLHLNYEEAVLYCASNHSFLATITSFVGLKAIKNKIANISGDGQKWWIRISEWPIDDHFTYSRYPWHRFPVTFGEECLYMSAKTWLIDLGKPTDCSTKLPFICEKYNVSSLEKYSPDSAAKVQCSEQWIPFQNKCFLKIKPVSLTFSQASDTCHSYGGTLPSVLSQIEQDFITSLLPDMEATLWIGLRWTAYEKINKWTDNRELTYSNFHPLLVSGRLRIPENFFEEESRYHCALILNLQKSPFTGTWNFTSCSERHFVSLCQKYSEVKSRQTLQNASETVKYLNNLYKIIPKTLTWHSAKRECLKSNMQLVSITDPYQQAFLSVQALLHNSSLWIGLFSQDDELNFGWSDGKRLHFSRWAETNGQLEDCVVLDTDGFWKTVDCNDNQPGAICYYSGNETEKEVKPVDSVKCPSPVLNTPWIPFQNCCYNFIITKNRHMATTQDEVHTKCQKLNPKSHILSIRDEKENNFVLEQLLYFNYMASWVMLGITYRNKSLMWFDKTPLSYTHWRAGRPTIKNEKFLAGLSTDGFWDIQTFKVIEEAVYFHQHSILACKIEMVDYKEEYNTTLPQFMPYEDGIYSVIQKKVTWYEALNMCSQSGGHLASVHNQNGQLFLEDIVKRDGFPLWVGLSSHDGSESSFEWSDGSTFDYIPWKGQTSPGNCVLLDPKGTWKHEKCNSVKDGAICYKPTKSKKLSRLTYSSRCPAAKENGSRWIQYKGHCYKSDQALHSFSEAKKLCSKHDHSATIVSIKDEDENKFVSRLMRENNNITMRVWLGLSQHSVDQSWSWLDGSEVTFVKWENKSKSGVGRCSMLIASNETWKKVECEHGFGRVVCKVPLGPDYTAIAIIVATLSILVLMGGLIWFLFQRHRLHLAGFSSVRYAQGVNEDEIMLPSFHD
T2 sequence (P25942 21-277): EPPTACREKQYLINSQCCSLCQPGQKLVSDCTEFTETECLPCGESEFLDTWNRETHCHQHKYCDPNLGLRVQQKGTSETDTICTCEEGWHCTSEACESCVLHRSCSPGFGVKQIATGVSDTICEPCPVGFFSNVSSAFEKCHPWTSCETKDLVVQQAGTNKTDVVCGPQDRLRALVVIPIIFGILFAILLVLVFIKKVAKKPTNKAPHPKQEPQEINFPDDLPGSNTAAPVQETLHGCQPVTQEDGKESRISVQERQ

B1: construct 18532 (CD40 X HER2; 12E12, Pertuzumab; Fab x scFv) (bispecific antibody, human IgG1, kappa, L234A L235A)
heavy: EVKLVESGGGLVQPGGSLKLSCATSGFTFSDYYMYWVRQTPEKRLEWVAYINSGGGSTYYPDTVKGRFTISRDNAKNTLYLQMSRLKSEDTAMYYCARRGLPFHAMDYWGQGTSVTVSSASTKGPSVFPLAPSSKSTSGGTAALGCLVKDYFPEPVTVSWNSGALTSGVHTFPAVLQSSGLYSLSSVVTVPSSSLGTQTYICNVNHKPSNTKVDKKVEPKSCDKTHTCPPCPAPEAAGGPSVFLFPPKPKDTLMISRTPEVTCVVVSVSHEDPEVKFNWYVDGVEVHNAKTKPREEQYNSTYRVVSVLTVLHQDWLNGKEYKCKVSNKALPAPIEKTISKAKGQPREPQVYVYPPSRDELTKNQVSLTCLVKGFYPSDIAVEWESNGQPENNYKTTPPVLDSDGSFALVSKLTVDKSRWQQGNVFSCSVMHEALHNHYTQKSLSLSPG
light: DIQMTQTTSSLSASLGDRVTISCSASQGISNYLNWYQQKPDGTVKLLIYYTSILHSGVPSRFSGSGSGTDYSLTIGNLEPEDIATYYCQQFNKLPPTFGGGTKLEIKRTVAAPSVFIFPPSDEQLKSGTASVVCLLNNFYPREAKVQWKVDNALQSGNSQESVTEQDSKDSTYSLSSTLTLSKADYEKHKVYACEVTHQGLSSPVTKSFNRGEC
scFv: DIQMTQSPSSLSASVGDRVTITCKASQDVSIGVAWYQQKPGKAPKLLIYSASYRYTGVPSRFSGSGSGTDFTLTISSLQPEDFATYYCQQYYIYPATFGQGTKVEIKVEGGSGGSGGSGGSGGVDEVQLVESGGGLVQPGGSLRLSCAASGFTFADYTMDWVRQAPGKGLEWVGDVNPNSGGSIYNQRFKGRFTFSVDRSKNTLYLQMNSLRAEDTAVYYCARNLGPSFYFDYWGQGTLVTVSSAAEPKSSDKTHTCPPCPAPEAAGGPSVFLFPPKPKDTLMISRTPEVTCVVVSVSHEDPEVKFNWYVDGVEVHNAKTKPREEQYNSTYRVVSVLTVLHQDWLNGKEYKCKVSNKALPAPIEKTISKAKGQPREPQVYVLPPSRDELTKNQVSLLCLVKGFYPSDIAVEWESNGQPENNYLTWPPVLDSDGSFFLYSKLTVDKSRWQQGNVFSCSVMHEALHNHYTQKSLSLSPG
notes: also called v18532; Her2×CD40
Regarding B1, the binding result in assay [1] and in assay [2] was “binds” throughout.

B2: construct 18529 (DEC-205 X HER2; 3G9, Pertuzumab; Fab x scFv) (bispecific antibody, human IgG1, kappa, L234A L235A)
heavy: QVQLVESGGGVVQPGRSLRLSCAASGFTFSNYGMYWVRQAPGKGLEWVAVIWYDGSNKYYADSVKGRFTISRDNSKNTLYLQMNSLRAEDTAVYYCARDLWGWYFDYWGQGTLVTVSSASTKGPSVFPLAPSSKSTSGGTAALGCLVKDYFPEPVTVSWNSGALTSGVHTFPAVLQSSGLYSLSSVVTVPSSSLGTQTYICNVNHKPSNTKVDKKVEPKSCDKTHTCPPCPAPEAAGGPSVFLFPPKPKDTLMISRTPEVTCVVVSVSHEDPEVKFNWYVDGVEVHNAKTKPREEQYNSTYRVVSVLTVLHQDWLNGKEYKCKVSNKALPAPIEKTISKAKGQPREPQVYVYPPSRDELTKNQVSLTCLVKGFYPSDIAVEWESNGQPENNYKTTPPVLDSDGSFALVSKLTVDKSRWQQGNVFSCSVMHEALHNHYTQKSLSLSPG
light: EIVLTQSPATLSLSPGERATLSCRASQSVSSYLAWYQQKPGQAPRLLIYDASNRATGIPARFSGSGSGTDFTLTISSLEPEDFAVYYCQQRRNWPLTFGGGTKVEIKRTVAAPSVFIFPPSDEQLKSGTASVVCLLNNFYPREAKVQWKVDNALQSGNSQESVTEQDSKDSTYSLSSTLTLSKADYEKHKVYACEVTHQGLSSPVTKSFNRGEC
scFv: DIQMTQSPSSLSASVGDRVTITCKASQDVSIGVAWYQQKPGKAPKLLIYSASYRYTGVPSRFSGSGSGTDFTLTISSLQPEDFATYYCQQYYIYPATFGQGTKVEIKVEGGSGGSGGSGGSGGVDEVQLVESGGGLVQPGGSLRLSCAASGFTFADYTMDWVRQAPGKGLEWVGDVNPNSGGSIYNQRFKGRFTFSVDRSKNTLYLQMNSLRAEDTAVYYCARNLGPSFYFDYWGQGTLVTVSSAAEPKSSDKTHTCPPCPAPEAAGGPSVFLFPPKPKDTLMISRTPEVTCVVVSVSHEDPEVKFNWYVDGVEVHNAKTKPREEQYNSTYRVVSVLTVLHQDWLNGKEYKCKVSNKALPAPIEKTISKAKGQPREPQVYVLPPSRDELTKNQVSLLCLVKGFYPSDIAVEWESNGQPENNYLTWPPVLDSDGSFFLYSKLTVDKSRWQQGNVFSCSVMHEALHNHYTQKSLSLSPG
notes: Three polypeptides A, B and C; also called Her2×Dec205
On to B2, for which the binding result in assay [3] and in assay [1] was “binds” throughout.
